Source: patent US9487562B2, “Stabilized polypeptides as regulators of RAB GTPase function” (President and Fellows of Harvard College, priority 2011, dated 2016)
Entries after “also recorded” stand apart in the source; their conditions may differ. Bridge positions count the residues as written; N and C are the ends. Square brackets hold non-standard residues; d marks the D form. Ends that are not written are not given here. * marks the point of attachment. FITC = O=C1OC2(c3ccc(O)cc3Oc3cc(O)ccc32)c2ccc(NC(=S)*)cc21; Met(O) = CS(=O)CC[C@H](N)C(=O)O; S5 = C=CCCC[C@](C)(N)C(=O)O

How the values were obtained:
RAB25 [1] = biological target: RAB25 (UniProt P57735); test: ALPHAscreen competition
RAB11 [2] = biological target: RAB11 (UniProt P62491); test: fluorescence polarization
RAB25 [3] = biological target: RAB25 (UniProt P57735); test: fluorescence polarization
RAB25 [4] = biological target: T1, RAB25 (Homo sapiens, UniProt P57735); test: Fluorescence polarization binding of FITC-FIP/FITC-RFP peptides to RAB25; settings: FITC peptide 15 nM
T1 construct: RAB25 (residues E7-Q180) was expressed with an N-terminal GST- and hexahistidine tag; made in house; host or cells: Escherichia coli BL21(DE3) pLysS
T1 sequence (P57735 7-180): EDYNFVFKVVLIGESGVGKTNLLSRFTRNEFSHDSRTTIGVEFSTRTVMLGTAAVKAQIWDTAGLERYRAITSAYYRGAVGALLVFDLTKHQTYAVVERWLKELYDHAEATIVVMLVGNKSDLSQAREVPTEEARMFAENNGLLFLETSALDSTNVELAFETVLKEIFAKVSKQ
Method: (§1) RAB11/25 protein binding assays were performed by incubating FITC-FIP or FITC-RFP (stapled FIP derivatives) peptides (15 nM) with three-fold dilutions of recombinantly-expressed, purified RAB11, RAB25 or a various epitope-tagged version of either in protein-binding buffer (25 mM Tris-HCl, pH 8.0, 150 mM NaCl, 1 mM EDTA, 1 mM DTT, 10 mM MgCl2, 10 mM GTP). Dilutions and incubations were made in 384-well, black flat-bottom plates (Corning) to a total volume of 40 μL and equilibrated for 60 minutes. Polarization was measured on a Spectramax-M5 multi-label plate reader with λex=485 nm and λem=525 nm. Polarization was calculated according to the standard equation: P=(V−H)/(V+H), where P=polarization, V=vertical emission intensity and H=horizontal emission intensity. Kd values were determined by fitting data to a variable-slope sigmoidal binding curve using Prizm 4 graphing software.
(§2) RAB11 and RAB25 proteins were expressed and purified in Escherichia coli strain BL21(DE3) pLysS (Stratagene) as epitope-tagged fusion proteins in various vectors (Novagen). RAB25 (residues E7-Q180) was expressed with an N-terminal GST- and hexahistidine tag with internal thrombin and TEV cleavage sites (GST-H6-RAB25) (SEQ ID NO: 86) in a pET41-1 vector (Novagen) or with an N-terminal hexahistidine tag alone with an internal thrombin cleavage site (H6-RAB25) (SEQ ID NO: 86) in a pET28 vector (Novagen). FIP3 protein (residues 649-756) was expressed with an N-terminal GST-tag with an internal TEV cleavage site (GST-FIP3) in a pGEX6p-1 vector (Novagen). RAB11 (residues 1-175) was expressed with an N-terminal GST-tag with an internal thrombin cleavage site in a pGEX5x-1 vector (Novagen). Transformed bacteria was grown at 37° C. until an OD600=0.8 was reached, at which point the culture was induced with 0.5 mM isopropyl β-D-1-thiogalactopyranoside (IPTG). Induced cells were grown at 30° C. for 6 hours, pelleted and lysed in binding buffer (25 mM Tris-HC;, pH 8.0, 150 mM NaCl, 1 mM EDTA, 1 mM DTT, 10 mM MgCl2, 10 mM GTP) supplemented with a complete protease inhibitor tablet (Roche) by sonication on ice. The lysate was centrifuged at 14,000 rpm to clear insoluble matter prior to loading onto Ni-NTA resin (Qiagen) for hexahistdine-tagged constructs or on GST-bind agarose resin (Biorad) for GST-tagged constructs. The protein-bound bead slurry was washed 4× with ˜20 mL of buffer and retained protein was eluted with either 250 mM imidazole or 20 mM glutathione in buffer for H6-(SEQ ID NO: 86) or GST-proteins, respectively. The eluent was concentrated using a 30 kD exclusion filter and purified by size-exclusion chromatography on a Superdex-75 Column (Amersham Pharmacia Biotech). Fractions containing purified protein were pooled, concentrated and dialyzed into binding buffer or other similar buffer for specific biochemical assays.

RAB11 [5] = biological target: T2, RAB11 (Homo sapiens, UniProt P62491); test: Fluorescence polarization binding of FITC-FIP/FITC-RFP peptides to RAB11; settings: for binding affinity to RAB11: FITC peptide 15 nM, fluorescence polarization; for binding to RAB11: in the presence and absence of GTP, FITC peptide
T2 construct: RAB11 (residues 1-175) was expressed with an N-terminal GST-tag with an internal thrombin cleavage site; GST (thrombin cleavage site between tag and RAB11) (N); made in house; host or cells: Escherichia coli BL21(DE3) pLysS
T2 sequence (P62491 1-175): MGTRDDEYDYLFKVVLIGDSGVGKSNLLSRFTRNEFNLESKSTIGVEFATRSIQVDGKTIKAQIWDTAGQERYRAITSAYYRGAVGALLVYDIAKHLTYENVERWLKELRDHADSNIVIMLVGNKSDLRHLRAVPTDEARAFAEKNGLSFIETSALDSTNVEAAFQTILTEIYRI
Method: Fluorescence polarization (FP) was used to measure FIP peptide binding to RAB11 and RAB25 proteins. […] This indicated specificity in the binding measurement, as this subtle change would be expected to perturb binding.
as §1, §2

[6] = Circular dichroism spectra / percent helicity; assay type: physicochemical; settings: 20° C. in water, peptides at 50 μM
Method: We next investigated the structural stability of the RFPs by obtaining circular dichroism (CD) spectra for each peptide. All measurements were made at 20° C. in water with peptides at 50 μM. […] By comparison, stapled FIP peptides (RFPs) show helical CD spectra indicated by minima at approximately 208 and 222 nm (FIG. 11B).
A circular dichroism spectrometer (Jasco J-710, Japan) was used to determine the α-helical content of all peptides. Peptides were dissolved in water to a final concentration of 50 μM in a quartz cuvette with a path length of 1 cm. Absorbance values were taken at 1 nm intervals between 190 and 260 nm for buffer alone and for peptide solutions. The background (buffer) spectrum was subtracted from experimental spectra, which were subsequently subjected to baseline-normalization and curve-smoothing within the spectrometer software. Percent-helicity was calculated from the absorbance at 222 nm using helical models as previously reported in Chen Y H et al., Biochemistry, 13, 3350-9 (1974).

[7] = Peptide thermal stability by CD at 222 nm; assay type: physicochemical; settings: CD at 222 nm over 10-90° C.
Method: Peptide thermal stability was measured by scanning the peptide CD at 222 nm over a temperature range (10-90° C.). A sigmoidal unfolding curve was apparent for helices of unmodified FIP peptides (FIP4) with a Tm of ˜34° C. (FIG. 12A).
Peptide thermal stability experiments were performed in a similar manner to circular dichroism experiments in Example 5. Peptide solutions were cooled to 10° C. in a temperature controlled CD-chamber and circular dichroism absorbance at 222 nm was measured at 1 degree intervals while the solution was heated to 90° C. 222 nm CD values were plotted as a function of temperature and fitted to a sigmoidal denaturation curve, with the half-maximal temperature representing the Tm.

RAB25 [8] = test: Fluorescence polarization binding of FITC-FIP/FITC-RFP peptides to RAB25
Method: as §1, §2

GST-H6-RAB25 = GST-H6-RAB25 (UniProt P57735); test: AlphaScreen competition
RAB25 [9] = biological target: T3, RAB25 (UniProt P57735 7-180); test: fluorescence polarization (FIG. 19B, RAB25); reference peptide not named
T3 construct: range 7-180; Target of the fluorescence polarization assays; also called H6-RAB25
T3 sequence (looked up): T1 sequence (P57735 7-180)
Method: as §1, with “MgCl_2,” for “MgCl2,”, “µL” for “μL”, “$\lambdaex$=485” for “λex=485”, “$\lambdaem$=525” for “λem=525”, “K_d” for “Kd”

GST-RAB11 = GST-RAB11 (UniProt P62491); test: … titration (hook effect), approximately 10 nM GST-RAB11

FIP3(726-56)
IC50 (RAB25 [1]): 14.1 µM

unmodified FIP3 peptide
Kd (RAB11 [2]): 1.7 µM
Kd (RAB25 [3]): > 5 µM

FIP1: unmodified RAB family interacting protein 1 (class I) peptide (KKEFQVRELEDYIDNLLVRVMEETPNILRIPA) [reference compound]
binding affinity to RAB25 (RAB25 [4]): little or no binding
binding affinity to RAB11 (RAB11 [5]): little or no binding

FIP4: wild-type unmodified FIP4 peptide (EQEEINFRLRQYMDKIILAILDHNPSILEIKH) [reference compound]
CD curve shape / secondary structure [6]: partially unfolded/helical structure
Tm [7]: ~34 °C
binding affinity to RAB25 (RAB25 [4]): micromolar
relative affinity RAB11 versus RAB25 (selectivity) (RAB25 [8]): tighter binding to RAB11 than RAB25
binding affinity to RAB11 (RAB11 [5]): micromolar

RFP31: triple-alanine mutant negative control, SEQ ID NO: 84 (RINFRLQNXIDRXAARIAETNPSILEVK; not fully specified; hydrocarbon staple)
binding affinity to RAB25 (RAB25 [4]): negligible affinity
binding affinity to RAB11 (RAB11 [5]): negligible affinity

RFP24: stapled FIP peptide containing an E-R mutation to increase overall charge, SEQ ID NO: 82 (RINFRLQN[S5]IDR[S5]IVRIFETNPSILRVK; staple 9-13; not fully specified (C-terminus))
binding affinity to RAB25 (RAB25 [4]): retained binding affinity

RFP17: stapled FIP peptide of second design set, SEQ ID NO: 78 (FIG. 7, top to bottom) (RINFRLQN[S5]IDR[S5]IVRIFETNPSILEVK; staple 9-13; not fully specified (C-terminus))
Tm [7]: 54 °C
bias for RAB11 versus RAB25 (RAB11 [5]; ratio of affinities RAB11 vs RAB25): equivalent affinity

FITC-RFP1: unmodified FIP3 peptide conjugated to FITC ({FITC}-KQEEINFRLQDYIDRIIVAIMETNPSILEVK)
binding to RAB11 (RAB11 [5]): dose-dependent binding

FIP2: unmodified RAB family interacting protein 2 peptide (ERDTHIRELEDYIDNLLVRVMEETPSILRVPY) [reference compound]
binding affinity to RAB25 (RAB25 [4]): little or no binding
binding affinity to RAB11 (RAB11 [5]): little or no binding

FIP3 protein (from UniProt O75154 649-756)
IC50 (GST-H6-RAB25): 10 µM
IC50 (RAB25 [1]): 10.1 µM

FITC-RFP1-Ox: chemical derivative of FITC-RFP1 containing an oxidized methionine at a critical hydrophobic interaction site with RAB11 ({FITC}-KQEEINFRLQDYIDRIIVAI[Met(O)]ETNPSILEVK)
binding to RAB11 (RAB11 [5]): decreased binding; also recorded: dose-dependent binding

B1: RFP31 (peptide)
peptide: RINFRLQN[S5]IDR[S5]AARIAETNPSILEVK
modifications: staple 9-13; also: N-terminal cap differs by assay: FITC or diethyleneglycol-biotin
notes: Negative control in which the I/V/M contact residues are changed to alanine; also called triple-alanine mutant negative control
fold decrease in binding affinity (RAB25 [9]): ~100 fold

B2: unmodified FIP2 peptide (peptide)
peptide: ERDTHIRELEDYIDNLLVRVMEETPSILRVPY
modifications: also: N-terminal FITC (FP) or biotin (ALPHASCREEN)
concentration of biotinylated peptide at maximum signal (GST-RAB11): 40 nM
